Data from article PMC12266122 (2025).

B1: FLAG-TSC22D2 (full length, wild type) [human] / HA-NRBP1 WT [human] (parent complex)
chain 1: MSKMPAKKKSCFQITSVTTAQVATSITEDTESLDDPDESRTEDVSSEIFDVSRATDYGPEEVCERSSSEETLNNVGDAETPGTVSPNLLLDGQLAAAAAAPANGGGVVSARSVSGALASTLAAAATSAPAPGAPGGPQLAGSSAGPVTAAPSQPPTTCSSRFRVIKLDHGSGEPYRRGRWTCMEYYERDSDSSVLTRSGDCIRHSSTFDQTAERDSGLGATGGSVVVVVASMQGAHGPESGTDSSLTAVSQLPPSEKMSQPTPAQPQSFSVGQPQPPPPPVGGAVAQSSAPLPPFPGAATGPQPMMAAAQPSQPQGAGPGGQTLPPTNVTLAQPAMSLPPQPGPAVGAPAAQQPQQFAYPQPQIPPGHLLPVQPSGQSEYLQQHVAGLQPPSPAQPSSTGAAASPATAATLPVGTGQNASSVGAQLMGASSQPSEAMAPRTGPAQGGQVAPCQPTGVPPATVGGVVQPCLGPAGAGQPQSVPPPQMGGSGPLSAVPGGPHAVVPGVPNVPAAVPAPSVPSVSTTSVTMPNVPAPLAQSQQLSSHTPVSRSSSIIQHVGLPLAPGTHSAPTSLPQSDLSQFQTQTQPLVGQVDDTRRKSEPLPQPPLSLIAENKPVVKPPVADSLANPLQLTPMNSLATSVFSIAIPVDGDEDRNPSTAFYQAFHLNTLKESKSLWDSASGGGVVAIDNKIEQAMDLVKSHLMYAVREEVEVLKEQIKELVERNSLLERENALLKSLSSNDQLSQLPTQQANPGSTSQQQAVIAQPPQPTQPPQQPNVSSA
chain 2: not shown

Variants of: B1
Experiment: co-immunoprecipitation (HA-IP) with immunoblot densitometry; HEK293 cells stably expressing HA-NRBP1, 36 hours after transfection; N = 2, n = 2; read off a plot

response	Variant
~0.76	chain 1 R161A
~0.22	chain 1 R179A

Continued, variant first:

Variant	response
chain 1 R161A, chain 1 F162A	~0.35
chain 1 R179E	~0.09
chain 1 R161E, chain 1 F162A, chain 1 R179E	~0.02
